The subject of the series is p19 N15K,G16R. Description: BLI / MSD-SET. The following applies: 2'-OMe at select positions, BLI: citrate-phosphate buffer, 100 mM NaCl, 0.1% BSA, 0.002% Tween-20, 37 C (pH of the siRNA assay not stated), MSD-SET: PBS, 100 pM siRNA, 24 h ….

Take “AACGCUGGGCGUUAAUCAATT / UUGAUUAACGCCCAGCGUUTT [Seq 7 siRNA]”: the binding signal (fold higher affinity than p19 (up to)) is 160.
